Experimental findings from patent publication US20040161448 are described below.

Data set [1] deals with T1, Soybean Kunitz Trypsin Inhibitor (UniProt P01070).
T1 sequence: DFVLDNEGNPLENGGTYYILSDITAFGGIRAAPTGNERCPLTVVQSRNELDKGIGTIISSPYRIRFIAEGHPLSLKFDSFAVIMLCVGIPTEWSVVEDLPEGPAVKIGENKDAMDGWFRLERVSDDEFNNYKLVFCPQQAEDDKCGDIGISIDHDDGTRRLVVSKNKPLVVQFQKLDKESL

Data set [2] has as its target soybean agglutinin (SBA) (UniProt P05046).
For data set [3], the target named is T2, soybean Bowman-Birk Inhibitor (UniProt P01055).
T2 sequence: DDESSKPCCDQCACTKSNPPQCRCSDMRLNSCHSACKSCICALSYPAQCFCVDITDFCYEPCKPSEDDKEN

Chain of soybean agglutinin (SBA) (P05046 33-285): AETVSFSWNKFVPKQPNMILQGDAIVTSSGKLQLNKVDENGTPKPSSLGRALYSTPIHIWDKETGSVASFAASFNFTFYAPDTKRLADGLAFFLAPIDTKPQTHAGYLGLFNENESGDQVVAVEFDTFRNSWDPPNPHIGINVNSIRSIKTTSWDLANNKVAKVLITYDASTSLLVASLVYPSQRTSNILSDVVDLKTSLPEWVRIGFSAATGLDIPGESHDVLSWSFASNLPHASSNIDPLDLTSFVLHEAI

Take “protease derived from Bacillus sp. NCIMB 40484”: the results for the % of anti-nutritional factor degraded in data set [1], in data set [2] and in data set [3] were 100%, 21% and 41%, respectively.
